From patent publication US20220306746A1 (CHINA MEDICAL UNIVERSITY HOSPITAL, published 2022) come the findings set out here.

The target of assay [1] is T1, programmed cell death ligand 1 (PD-L1) on cells (UniProt Q9NZQ7 19-290, limits assumed).
T1 construct: whole, on cells; H1975, A549 and MDA-MB-231 are human tumour cell lines; also called PD-L1 aAPC/CHO-K1 cells
The assay is described as follows: flow cytometry on H1975 cells, FITC-labelled nanobody 1 ng/ml [b]. Here is the method: In this example, the procedures of flow cytometric analysis of the anti-PD-L1 nanobody are as follows. The anti-PD-L1 nanobody (1 ng/ml) was pre-stained with FITC fluorescein by Fastlink Fluorescein Labeling Kit (Abnova), the procedures were performed according to the manual instructions. […] After washing with PBS, the cells were analyzed by flow cytometry using FL1 channel.
For orientation: In flow cytometry, cells or beads pass a laser one at a time.

Assay [2] concerns the target T1, programmed cell death ligand 1 (PD-L1) …. The assay is described as follows: cell-based or functional assay.

T1 sequence (Q9NZQ7 19-290 limits assumed): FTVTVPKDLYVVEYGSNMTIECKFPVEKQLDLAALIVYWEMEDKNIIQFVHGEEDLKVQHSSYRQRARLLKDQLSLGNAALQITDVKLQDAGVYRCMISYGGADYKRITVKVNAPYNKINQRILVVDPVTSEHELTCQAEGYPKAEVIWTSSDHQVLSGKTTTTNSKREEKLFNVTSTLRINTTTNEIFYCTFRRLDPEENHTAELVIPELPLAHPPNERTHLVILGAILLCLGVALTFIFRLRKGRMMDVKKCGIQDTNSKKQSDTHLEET

B1: anti-PD-L1 nanobody clone #1 (VHH)
VHH: HVQLVESGGGLVQPGGSLRISCAASGFTFSSRAMSWVRQAPGKGLEWVSTINSDGSNTYYSDSVKDRFTISRDNAINTLYLQLNSLKTEDTAMYYCSRCPDIYCGGQYTYRGQGTQVTVSS
notes: Labelled with FITC for flow cytometry; also called PD-L1 nb
Take B1: in assay [1], the binding result is on record as “binds”.

B2: anti-PD-L1 nanobody clone #67 (VHH)
VHH: QVQLVESGGGLVQPGGSLRISCAASGFTFSSRAMSWVRQAPGKGLEWVSTVNSDGSNTYYSDSVKDRFTISRDNAINTLYLQLNSLKTEDTAMYYCSRCPDIYCGGQYTYRGQGTQVTVSS
For B2, in assay [2], the “EC50 (read off the curve)” value was about 3 µg/mL.

Broadly, the EC50 (read off the curve) is the concentration that produces a half-maximal response. A low value points to an effect from little substance.
